The record followed here is paper doi:10.1101/2020.01.29.926220v1.

What all share (assay): spectrophotometric hydrolysis, initial rates, Hanes-Woolf
Common to all, as to assay type: biochemical, Yersinia mollaretii
Settings in all cases: 50 mM MES pH 6.0, 30°C

In data set [1] the test system is C[C@@H](O)[C@H]1C(=O)N2C(C(=O)O)=C(S[C@@H]3CN[C@H](C(=O)Nc4cccc(C(=O)O)c4)C3)[C@H](C)[C@H]12.
In data set [2] the test system is C[C@@H](O)[C@H]1C(=O)N2C(C(=O)O)=C(S[C@@H]3CN[C@H](C(=O)N(C)C)C3)[C@H](C)[C@H]12.
Data set [3] deals with C[C@@H](O)[C@H]1C(=O)N2C(C(=O)[O-])=C(SC3Cn4cnc[n+]4C3)[C@H](C)[C@H]12.
For data set [4], the system named is C[C@@H](O)[C@H]1C(=O)N2C(C(=O)O)=C(SCCN=CN)C[C@H]12.
In data set [5] the test system is C[C@@H](O)[C@H]1C(=O)N2C(C(=O)O)=C(S[C@@H]3CN[C@H](CNS(N)(=O)=O)C3)[C@H](C)[C@H]12.

For YEM-1 (Yersinia mollaretii ATCC 43969), the kcat in data set [1] was greater than 400 s⁻¹; in data set [2], greater than 400 s⁻¹; in data set [3], greater than 16 s⁻¹; in data set [4] it was 480 s⁻¹; in data set [5], greater than 100 s⁻¹. In data set [4], the Michaelis-Menten constant (Km) was 160 µM.
